Data taken from US7910106B2, “Combinations of SAP depleting agents and anti-SAP antibodies” (Pentraxin Therapeutics Ltd., priority 2007, dated 2011).
Blank lines part the entries; values can stand above or below the molecule they belong to.

How the values were obtained:
SAP [1] = target: T1, SAP (Homo sapiens, UniProt P02743); test: Human SAP in serum and organ extracts by electroimmunoassay, AA amyloidotic human SAP transgenic mice (Example 1); assay type: in vivo, mouse; design: from tissue; host or cells: serum, spleen and liver of C57BL/6 mice with the mouse SAP gene deleted and transgenic for human SAP; conditions: for Human SAP concentrations in serum [mean (SD)]: post CPHPC before antibody day 0, CPHPC 1 mg/ml in drinking water
T1 sequence (P02743 20-223): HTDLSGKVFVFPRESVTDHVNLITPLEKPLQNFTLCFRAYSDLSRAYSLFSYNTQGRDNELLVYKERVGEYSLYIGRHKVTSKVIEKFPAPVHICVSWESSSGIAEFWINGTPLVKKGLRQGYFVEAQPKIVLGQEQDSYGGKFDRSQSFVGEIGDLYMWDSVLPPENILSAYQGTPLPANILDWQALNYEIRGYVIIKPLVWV
Text: In the present study AA amyloidosis was induced in mice by amyloid enhancing factor injection followed by repeated casein injections to elicit persistent acute inflammation and thus sufficiently sustained increase in SAA production to promote AA amyloid deposition in all animals. A unique strain of pure line C57BL/6 animals was used in which the mouse SAP gene has been deleted^13 and a human SAP transgene has been introduced^14, 15. […] We then treated three very closely matched groups as follows:
Systemic AA amyloidosis was induced in adult male (n=61) and female (n=32) pure line C57BL/6 mice with the mouse SAP gene deleted and which were transgenic for human SAP^15. Each mouse received a single dose of amyloid enhancing factor^9 by intravenous injection followed 4 days later by 10 daily subcutaneous injections of 10% w/v casein in solution in 0.1M NaHCO3 administered over a 12 day period^13. Seven days after the last casein injection, KI was introduced into the drinking water of all mice and 3 days later each mouse received an intravenous injection of a standard dose of ^125I-labelled human SAP^6,18. Four adult male and four female mice from the same colony but which had not received any other treatment were also given KI and ^125I-SAP as controls. All mice underwent whole body counting 24, 48, 72 96 and 168 h after the tracer injection to determine retention of radioactivity as an index of whole body amyloid load. […] The mice were then allocated to three closely matched groups with as close as possible to the same total numbers and sex distribution in each group. Ten days after the ^125I-SAP injection groups one and two were started on CPHPC in their drinking water at 1 mg/ml and continued on that treatment until the end of the experiment. Group three received no treatment at this or any later stage of the study. Five days after starting the CPHPC each animal in group one received an intraperitoneal injection comprising 1 ml of the whole IgG fraction of monospecific sheep anti-human SAP antiserum at 50 mg/ml containing 7 mg/ml of specific antibody in solution in phosphate buffered physiological saline. The antiserum was raised by immunisation of sheep with 100% pure human SAP. At the same time all animals in group 2 received an intraperitoneal injection comprising 1 ml of the whole IgG fraction of monospecific sheep anti-human oncostatin M receptor antiserum at 50 mg/ml in solution in phosphate buffered physiological saline. […] Twenty eight days after the intraperitoneal injections all mice were killed by bleeding out under terminal anaesthesia and the liver and spleen from each were removed. Each organ was weighed and then divided into three portions, one of which was also weighed and used for extraction of SAP, while the second portion was snap frozen for subsequent immunohistochemical and cytochemical analysis without fixation, and the last part was fixed in buffered formalin for routine histology and estimation of amyloid by Congo red staining^19. All mice were weighed at the time of assignment to the groups after induction of amyloidosis but before administration of ^125I-SAP. They were all weighed again before being killed at the end of the experiment. All mice were bled four times: (1) immediately before groups […] were started on CPHPC; (2) the day before injection of IgG preparations in groups […]; (3) 14 days after the IgG injections; (4) at the time of killing. Sections of spleen and liver of all animals stained with Congo red were independently examined by three different expert observers blinded to the treatment each mouse had received and scored for the amount of amyloid present as previously reported. The scores of 10^0-10^4 represent an approximately log base 10 ranking scale from 10^0, corresponding to one or two tiny specks of amyloidosis among several sections of a particular organ, to 10^4 corresponding to abundant widespread deposits comprising about 10,000 times more amyloid^13. […]

SAP [2] = target: T1, SAP; test: CPHPC administration in human systemic amyloidosis patients; assay type: in vivo; design: Human SAP is a constitutive protein in the plasma; from tissue; host or cells: plasma/serum and amyloid deposits of human patients; conditions: after months of continuous CPHPC administration
SAP [3] = target: T1, SAP; test: Treatment of a patient with systemic amyloidosis using CPHPC and anti-SAP antibody (Example 2); assay type: in vivo; design: Human SAP is a constitutive protein in the plasma; from tissue; host or cells: plasma/serum and amyloid deposits of human patients; conditions: day after bolus intravenous 100 mg CPHPC
Method: A patient suffering from systemic amyloidosis is diagnosed by clinical examination and routine investigations leading to suspicion of amyloidosis, followed by specific confirmation by expert histochemical examination of biopsies of affected tissues. Radiolabelled SAP scintigraphy is performed in the UK NHS National Amyloidosis Centre at the Centre for Amyloidosis and Acute Phase Proteins in the Department of Medicine of University College London at the Royal Free Hospital. […] Routine clinical investigations of organ function establish the extent and severity of tissue and organ damage caused by the amyloid deposits, as well as the presence and severity of any underlying primary disease which may have led to amyloid deposition.
The patient is treated with the SAP depleting drug, CPHPC, administered by bolus intravenous injection of a dose of 100 mg. The following day a blood sample is taken. This confirms by specific immunoassay that the SAP concentration in the serum has been reduced by 90%. An intravenous infusion of anti-SAP antibody is then commenced and over a period of several hours a dose of 1000 mg of antibody is administered sufficient to bind to SAP within the amyloid deposits throughout the body. CPHPC is administered parenterally twice daily for the next two weeks, to ensure that plasma SAP values remain suppressed. […]

SAP [4] = target: T1, SAP; design: Human SAP is a constitutive protein in the plasma; from tissue; host or cells: plasma/serum and amyloid deposits of human patients; conditions: in vivo; cited from earlier work
[5] = cited from earlier work
[6] = target: human SAP complexed with CPHPC and covalently cross-linked with BS3 (human) (UniProt P02743); test: IRMA, SAP-CPHPC complex covalently immobilised, in calcium, radiolabelled sheep anti-mouse IgG, mean n=3
human SAP complexed with CPHPC and covalently cross-linked with BS3 (human), sequence (P02743 20-223, one chain of several): as the sequence (P02743 20-223) above

[7] = target: human serum amyloid P component (SAP), isolated pure, native (human) (UniProt P02743); test: IRMA, SAP non-covalently immobilised, antibody at 100 ug/ml, detection polyvalent anti-mouse IgG
human serum amyloid P component (SAP), isolated pure, native (human), sequence (P02743 20-223): as above

[8] = target: human serum amyloid P component (SAP), isolated pure, native (human) (UniProt P02743); test: Biacore (SPR), isolated pure SAP alone immobilised on the chip
[9] = target: human SAP complexed with CPHPC and covalently cross-linked with BS3 (human) (UniProt P02743); test: IRMA, SAP-CPHPC complex covalently immobilised, in EDTA, radiolabelled sheep anti-mouse IgG, mean n=3
[10] = target: human serum amyloid P component (SAP), isolated pure, native (human) (UniProt P02743); test: IRMA, SAP non-covalently immobilised, antibody at 0.001 ug/ml, detection polyvalent anti-mouse IgG
[11] = target: human serum amyloid P component (SAP), isolated pure, native (human) (UniProt P02743); test: IRMA, SAP alone captured on immobilised sheep polyclonal anti-human SAP, in calcium, radiolabelled sheep anti-mouse IgG, mean n=3
[12] = target: human serum amyloid P component (SAP), isolated pure, native (human) (UniProt P02743); test: IRMA, SAP non-covalently immobilised, antibody at 1 ug/ml, detection anti-mouse IgG2a
[13] = target: human serum amyloid P component (SAP), isolated pure, native (human) (UniProt P02743); test: IRMA, SAP alone covalently immobilised, in EDTA, radiolabelled sheep anti-mouse IgG, mean n=3
[14] = target: human serum amyloid P component (SAP), isolated pure, native (human) (UniProt P02743); test: IRMA, SAP alone covalently immobilised, in calcium, radiolabelled sheep anti-mouse IgG, mean n=3
[15] = target: human serum amyloid P component (SAP), isolated pure, native (human) (UniProt P02743); test: IRMA, SAP non-covalently immobilised, antibody at 10 ug/ml, detection anti-mouse IgG2a
[16] = target: human serum amyloid P component (SAP), isolated pure, native (human) (UniProt P02743); test: IRMA, SAP non-covalently immobilised, antibody at 1 ug/ml, detection polyvalent anti-mouse IgG
[17] = target: human serum amyloid P component (SAP), isolated pure, native (human) (UniProt P02743); test: IRMA, SAP non-covalently immobilised, antibody at 0.1 ug/ml, detection polyvalent anti-mouse IgG
[18] = target: human serum amyloid P component (SAP), isolated pure, native (human) (UniProt P02743); test: IRMA, SAP non-covalently immobilised, antibody at 0.01 ug/ml, detection polyvalent anti-mouse IgG
[19] = target: human SAP complexed with CPHPC and covalently cross-linked with BS3 (human) (UniProt P02743); test: IRMA, SAP-CPHPC complex captured on immobilised sheep polyclonal anti-human SAP, in calcium, radiolabelled sheep anti-mouse IgG, mean n=3
[20] = target: human serum amyloid P component (SAP), isolated pure, native (human) (UniProt P02743); test: IRMA, SAP non-covalently immobilised, antibody at 0.1 ug/ml, detection anti-mouse IgG2a
[21] = target: human serum amyloid P component (SAP), isolated pure, native (human) (UniProt P02743); test: IRMA, SAP non-covalently immobilised, antibody at 10 ug/ml, detection polyvalent anti-mouse IgG
[22] = target: human serum amyloid P component (SAP), isolated pure, native (human) (UniProt P02743); test: IRMA, SAP non-covalently immobilised, antibody at 0.001 ug/ml, detection anti-mouse IgG2a
[23] = target: human serum amyloid P component (SAP), isolated pure, native (human) (UniProt P02743); test: IRMA, SAP non-covalently immobilised, antibody at 0.01 ug/ml, detection anti-mouse IgG2a
[24] = target: human serum amyloid P component (SAP), isolated pure, native (human) (UniProt P02743); test: IRMA, SAP non-covalently immobilised, antibody at 100 ug/ml, detection anti-mouse IgG2a

Human SAP concentrations in serum [mean (SD)] (SAP [1]; females): 4.0 (1.4) mg/l
Human SAP concentrations in serum (SAP [1]; females, post antibody day 14): trace
Human SAP concentrations in serum (SAP [1]; females, post antibody day 28): trace
Human SAP concentrations in serum [mean (SD)] (SAP [1]; males): 2.9 (1.3) mg/l
Human SAP concentrations in serum (SAP [1]; males, post antibody day 14): trace
Human SAP concentrations in serum (SAP [1]; males, post antibody day 28): trace
Greatest depletion of SAP from amyloid deposits (SAP [2]): about 90%
Reduction of SAP concentration in the serum (SAP [3]): 90%
Molecule: O=C(O)[C@H]1CCCN1C(=O)CCCCC(=O)N1CCC[C@@H]1C(=O)O [CPHPC, (R)-1-[6-[(R)-2-Carboxy-pyrrolidin-1-yl]-6-oxo-hexanoyl]pyrrolidine-2-carboxylic acid]
Tolerability / adverse effects (SAP [4]): extremely well tolerated

Molecule: human SAP: isolated pure human SAP injected to load amyloid deposits
Half time of persistence in amyloid deposits ([5]; amyloidotic mice): 3 to 4 days
Half life of clearance from the circulation ([5]; human SAP not bound to amyloid): 3 to 4 h

Activity bound (d.p.m.) [6]: 6160 d.p.m.
Activity bound (d.p.m.) [7]: 16200 d.p.m.
koff [8]: 6e-05 s⁻¹
kon [8]: 20000 M⁻¹ s⁻¹
Activity bound (d.p.m.) [9]: 5140 d.p.m.
Activity bound (d.p.m.) [10]: 195 d.p.m.
Activity bound (d.p.m.) [11]: 9310 d.p.m.
Activity bound (d.p.m.) [12]: 1650 d.p.m.
Activity bound (d.p.m.) [13]: 4050 d.p.m.
Activity bound (d.p.m.) [14]: 5580 d.p.m.
Activity bound (d.p.m.) [15]: 1980 d.p.m.
Activity bound (d.p.m.) [16]: 12100 d.p.m.
Activity bound (d.p.m.) [17]: 4560 d.p.m.
Activity bound (d.p.m.) [18]: 902 d.p.m.
Activity bound (d.p.m.) [19]: 7120 d.p.m.
Activity bound (d.p.m.) [20]: 589 d.p.m.
Activity bound (d.p.m.) [21]: 15400 d.p.m.
Activity bound (d.p.m.) [22]: 94 d.p.m.
Activity bound (d.p.m.) [23]: 222 d.p.m.
Activity bound (d.p.m.) [24]: 2200 d.p.m.
Molecule: mouse monoclonal anti-human SAP antibody SAP-5
